Experimental data as given in article doi:10.1101/2020.09.17.302869.
Where two headings read alike, the source gives them in different places.

Tests used:
Assay in all cases: MST
[1] = target: sarco/endoplasmic reticulum Ca2+-ATPase (SERCA), native rabbit, detergent solubilized (rabbit) (UniProt P04191)
[2] = target: sarco/endoplasmic reticulum Ca2+-ATPase (SERCA), native rabbit, detergent solubilized (rabbit) (UniProt P04191); remark: listed apart in the source
[3] = target: sarco/endoplasmic reticulum Ca2+-ATPase (SERCA), native rabbit, detergent solubilized (rabbit) (UniProt P04191); remark: listed apart in the source

Sequence of UniProt P04191 (P04191 whole entry): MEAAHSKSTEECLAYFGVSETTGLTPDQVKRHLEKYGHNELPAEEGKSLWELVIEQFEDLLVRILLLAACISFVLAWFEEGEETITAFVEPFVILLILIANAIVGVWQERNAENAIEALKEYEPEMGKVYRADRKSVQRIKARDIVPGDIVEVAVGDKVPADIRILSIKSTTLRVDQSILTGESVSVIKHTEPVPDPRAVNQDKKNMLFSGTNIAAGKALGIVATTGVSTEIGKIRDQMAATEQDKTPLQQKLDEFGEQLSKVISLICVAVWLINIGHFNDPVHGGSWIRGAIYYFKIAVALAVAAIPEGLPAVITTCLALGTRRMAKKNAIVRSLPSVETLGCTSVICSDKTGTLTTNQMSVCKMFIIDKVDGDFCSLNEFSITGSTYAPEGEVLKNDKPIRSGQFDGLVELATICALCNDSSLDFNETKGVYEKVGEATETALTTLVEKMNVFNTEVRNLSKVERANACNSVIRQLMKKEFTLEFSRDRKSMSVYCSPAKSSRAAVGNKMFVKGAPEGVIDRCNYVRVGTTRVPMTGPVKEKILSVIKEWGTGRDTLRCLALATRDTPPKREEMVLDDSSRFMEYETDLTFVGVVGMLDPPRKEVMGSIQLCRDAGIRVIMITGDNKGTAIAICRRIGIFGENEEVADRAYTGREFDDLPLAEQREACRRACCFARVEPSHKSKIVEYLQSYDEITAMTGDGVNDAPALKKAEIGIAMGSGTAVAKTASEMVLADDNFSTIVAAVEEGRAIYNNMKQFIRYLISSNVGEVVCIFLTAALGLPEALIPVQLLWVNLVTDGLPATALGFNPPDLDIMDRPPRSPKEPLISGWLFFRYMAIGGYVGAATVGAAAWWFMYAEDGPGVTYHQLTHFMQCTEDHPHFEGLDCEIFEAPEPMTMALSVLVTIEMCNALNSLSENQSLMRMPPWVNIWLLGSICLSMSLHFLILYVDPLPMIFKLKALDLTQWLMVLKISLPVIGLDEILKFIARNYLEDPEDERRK

B1: rabbit HRC (496-656) (domain or fragment)
chain: STENGHQAHRHQGHGKEEAEVTSDEHHHHVPDHGHQGHGDKEGEEEGVSTDHWHQVPRHAHHGPGGEEEGGEEELTVKAGHHVASHPPPGHRSREGHAEEHQTEVPGHHQHRMGDTDTSAERGHPASSPRQQGHPPEDTVHHHRGSLKEEVGPESPGPAGV
[1]
  Kd: 500 to 1000 nM
[2]
  Kd: 140 nM
  fold decrease in affinity with increased KCl concentration: > 100 fold
  fold decrease in affinity, 200 mM against 50 mM KCl: > 300 fold
[3]
  Kd: 5600 nM

B2: rabbit HRC (458-640) (domain or fragment)
chain: GEEEDEDDDDEGEHHHVPHRGHRGHEEDDGGDDDDGDDSTENGHQAHRHQGHGKEEAEVTSDEHHHHVPDHGHQGHGDKEGEEEGVSTDHWHQVPRHAHHGPGGEEEGGEEELTVKAGHHVASHPPPGHRSREGHAEEHQTEVPGHHQHRMGDTDTSAERGHPASSPRQQGHPPEDTVHHHRG
[2]
  fold loss of affinity on removal of residues 640-666: 10 fold

B3: rabbit HRC (458-520) (domain or fragment)
chain: GEEEDEDDDDEGEHHHVPHRGHRGHEEDDGGDDDDGDDSTENGHQAHRHQGHGKEEAEVTSDE
[2]
  fold reduction of affinity by C-terminal truncation: > 1000 fold
